From the DeepSol protein solubility set come the findings set out here.

The data set can be described thus: soluble on expression in E. coli; label from the status in PepcDB or PDB records.
Consider “MVSSSSGLPSHRGPILSALYPGNGRGGYTASRGIHTSLLFRHRNAKLAWMIPRRLQPLLEARLEKVPVVVLTGPRQAGKTTLALEVAQRREALYLDLESEADRAKLSAPELYLEAHLGRLVILDEVHRMPGLFPLLRSLVDRARRRGLRNGLYLLLGSLAPEVSRQAGESLAGRASYLELSPFDLLEVGREAEPVLWLRGGFPESFLALEDEESFRWRMDFLRSYVEREIPLLGGRLPAEVLRRFLTMLAHLQGELLNASALARNLGLDGRTVNRYLDFLVDLYLLRRLPPLEANVGKRLVKSPKLYLRDSGLVHALLGIRTLEDLLAHPVVGRSYEGFVVENLLRVLPEGGEAYFYRTRAGAEVDLVLLLPGGRFWAVEVKRSLDPRPSRGFHEALKDLKPQEAFVIYPGGETFPVGEGVFAAPLGAVMERLWRG”, for which the “soluble on expression in E. coli” value was “soluble”.
Consider “MGSDKIHHHHHHMKILIYGAGVLGSYAAYELKRVGHEVTILARSSRYEELKEKGLVIRHWFQRKTTKNKINVVKELLPEEYYDAVFIVMQSSQTNAILPVITANVKCPLFVFVGNQDKAKDISEKIKSTSKSNPRVLFGFFSIGGRREGGKVISVHTKHPDFDIGDLEGRDDYKIIIEKIFKETSFKLHYHVNMDDFFKTHIVVIMPLAYLAYMSNCDLRKIAWNRKALNAVIDAMIEGHEVLIKLGHKVDPESSERLLRNHRKVAYLGLKVCAMTPLGKLGISDHCKSGWREMEYLDKRLLEWAKKSNLETPNINKLREHLIKYVHKKVI”, for which the “soluble on expression in E. coli” value was “not soluble”.
With “MADKYLTQSPAGEFVMFASDDGEVRVECRFEQETLWLPQATIANLYQITPQAVTQHIKAIYEEGELEQNATCKSYLQVQQEGSRQVSRNRLHYSLPVILAVGYRVRSPRGTQFRQWATQTLQKYLIKGFVMDDERLKNPPVGSSAVPDYFDEMLERIRDIRASERRVYLRVREIFALAADYQPSLKETTQFFQTIQNKLHFACTGHTAAELIHQRADASQPHMGLTSYKGEEVRKDDVTVAKNYLTQDEVSELNRVVNMWLDFAEDQARRRQQIFLRDWQDKLDQFLQFNDREVLQGAGKVTKKMADEKAQAEYSQFAEQQRRLKEAEGEKDIAGLLQWETEPKK” the entry was “not soluble”.
With “QAPGWLKEMRGEHAPETEEYGIASTAYRARRPFHPQRFFDLINRPWTNGKLLRSKGFFWLASKYKDAGSWSQAGGLMRHGFAGRWWRFVTRDSWPQDKESVASILENWSSETGDCRQELVFIGQNIDFTLLTAELDNCLLTDDEMAAGAERWRQLSDPFGEWYEDEVAA” the entry was “not soluble”.
Take “MLSIIIPVYNEKGNILELTSRIKSALKNNEYEIVFVDDSTDETPKIIESLALKYNNIRLKHRKGKKGLSSAVIDGFKLARGDVLSVMDGDLQHPPEMLESMLFQMKKDTDIVICSRFVLGGKEEGLNIFRKFASFIARLIGKIFLKPLRKISDPTAGFFMLKRKVIKNRDLRAIGWKILIEILVMGDYKRVVELPYSFKRRKHEKSKFTISVQGQYLKQIVSLFIRSKKYNIKLEHHHHHH”: the “soluble on expression in E. coli” value is recorded as “soluble”.
With “MHRDSTDIEVKRASELPENLPETTCAFANMPSGGTIILGVDENRDFEVVGVADAAALEEALISQTRNSVKPAPMIECETFTLEGKQVLVAQVNPVPLQNRPAHYRGVAYLRQSDGDYGMNDADLALVEIQKLSHSENFQFDVVPVLNSSTRDLDSVRVKSFLEAARAGSRILSKKIDDQELLETLNIVTVKGAAALEHHHHHH” the entry was “not soluble”; with “MMKSIATLISVVLCSFSAWAQTITAAQDPWPPFVMENAQQKGLSVDIVTAAFATQGYTVEFTIMPWSRALNDVKEGKIDILPATWFTQERTAYLTYSDNYLTNQVKFIKKAGDNFEFAGLASLNGKKVGIVRGYGYGDEFMNDPSFFRPESTDLKQNLQKLQAGRIDLAVEDELVAKSIITEAGMNLADFAFTNQAISENPLHVTSGKANPRSEELVAAFNKGLAEIKANGTFDKLLADYGIK”, “not soluble”.
Consider “MNVVLVGTDPNGLTDALEAEGHTVMVADVGNRPGLEEAGIHEADVYLLTEMSQATSIAVAKDLNPDLRVVVYAEGSLPDFASRQTDLVVDPDLLGSDAVAEEL”, for which the “soluble on expression in E. coli” value is on record as “not soluble”.
For “MENSRLMQSMPRTPKFEEEKKTDKDKEKEEKERNGKKTELARAQNKKAQEKDMPRFKQGENQIDTATETYELTSELGQGSFGAVFGVTRKSDKRHFAMKCESVNMKRAILPHEAGVLLALNHLKSPHFLEMVDHGIVNNRFLFVVLKLVGMNLWDMRAHLPDKKYTLTTTLRIAEQTLAGLRDLHRVGFLHRDIKPPNFAIGREEDDTYHTVFLLDFGLCRKIAMKGKDLRTPRKECAFRGTTRYAALAAHDNKEQSRKDDIESWWYMIAEMIVFDIPWKQFRGTDRDNVRGMKWRLRADETYFKFLFRKCCYEQMSAILLYLDQLSYSSIPDYDFVYHHLQAAAIVNNCSAKSPPDWDPKSQHYKGPIYKEREPYIVKSLE” the value was “not soluble”; for “MAKPIPVKVVVLTTFEIGAVTGDRPGEFQPWVEGLPLTETIAVPGLRHPARYSPKDGVLGVMTDMRARARESVAALLLDKRFDFSKTYWLVAGIAGVDPKAASIGSAAWARYVVDADPIYEVDDREIPADWPYGLYALETERPNVKGSAEGSSGMVWALNWRLVDWAYGLTAKVEIPDHPGLAALRAPYVGDPNAQRPPFVLKGEALGATRFWHGAKRTQWAQDWVKLWTDGAGVFVMTDCEDQGILDVLDLYAKAGRVDFQRVMVLRTASNYSRPPLGAPAFPRAFHDEGAVSAFDSAYRVGSVVVRELTARWDRYEANTPDMTAIGGTAKLEHHHHHH”, “not soluble”.
With “MITSTTTDYKNFFKHSAHPANAEQYFRELLDKRERRYEDLCRNIISDMNQYGLSVVDDFLGMETGLKILNEVRSMYNAGAFQDGQVVTNQTPDAPAVRGDKIRGDKIKWVGGNEPGCSNVWYLTNQIDSVVYRVNTMKDNGILGNYHIRERTRAMVACYPGSGTHYVMHVDNPQKDGRVITAIYYLNINWDARESGGILRIRPTPGTTVADIEPKFDRLIFFWSDIRNPHEVQPAHRTRYAITVWYFDAKEREEALIRAKLENSKTNNLAAQAQAQQAEPDSTTTPPAAPASSASSLPVSMSTGTGALNANVSSNSCATSSEICT” the entry was “not soluble”.
With “MLFFETDATLALWGEAVLAATWAEFPQLARNQLALTWIVYDDPVPVNTGGAIAPQSFWSLPIRGFHYRGDEAIYPASVVKLFYLVAALEWLQQGMIQPSAELDRALRDMIVDSSNDATGYIVDLLSGTTSGPELGDGPFKTWQFQRNIVNRYYQSLMWPELQPINVNQKTWGDGPYGRERAFYGPEFENRNKLTTNATARLLHAIAGGVAVSPSASQRMLNLLNRPFDPRSLAEDPENQVTGFLGQDLPQGSQLWSKAGWMSRVRHDAAYLEIPGLPPHLLVAFTEGKEHANNEAILPFIAQQVRQQLQPALEHHHHHH” the entry was “soluble”; with “MLFISSDNQKEKRGMAGNKKINRREEILQALAEMLESNEGASRITTAKLAKQVGVSEAALYRHFPSKARMFEGLIEFIEESLMSRINRIFDEEKDTLNRIRLVMQLLLAFAERNPGLTRILSGHALMFENERLRDRINQLFERIETSLRQILRERKLREGKSFPVDENILAAQLLGQVEGSLNRFVRSDFKYLPTANFDEYWALLSAQIK”, “soluble”; with “MSLYKIGELSKIVNLSIETIRYYEKIRLIPKPERFNNRYKKYSEMYIYRLKIIIKAKNYGFTLHEISNFLSEVSTSSIEDIDLSSTIMNKVQQIEKECERLNYKKNQLLKFEEEINDLQCPVLNRIINEKNEGHHHHHH”, “soluble”.
Consider “MGSDKIHHHHHHMHLSNSPNSHDPDAQARFWFARQQGQTLSEAEQQQLAEWLAANPLHQDAWRRVEEDWLAIDRYRHALNDELKKARRNRPGQHKAAFQLKRRAAAAALLVAVCIPVLYQGMTGTTTYWNTLKGEQQQITLAGGSTLNLDTATRITVTQNWFTHHVQLHEGEIYLETASSDWHTLRVSAEHYEIRDIGTRFSVRYIPDQFMVEVAEGTVEVKKQGQLVLLQAGEVLSIITGSNEWRLAALPAGDIAHWRKGLLVFNAHRLHDVLHEIARYHTVQFDLADSAIGEIQVSGRFKLDELDTNLQIIADTLKINIEHPAPGRYRLGALRQSTR”, for which the “soluble on expression in E. coli” value is reported as “not soluble”.
For “MKEIWLLAESESWDEAKEMLKDAIEIGFDGALVRRDFLERAEKLGRMKIVPIEDAVVKISSAEDQERALQREVVVLKFEDWKVIPLENIVAMKKSGKVIAAVDTIEDAKLALTTLERGADGIAVSGDRETLRKFYEVVKEEGERVELVRARVKEIRPLGVGERVCIDTVTLMTPGEGMLVGNQASFMFLVASESEESEYVASRPFRVNAGSVNAYLKVGDKTRYLAELKAGDEVEVVKFDGAVRKSYVGRVKIERRPLILIRAEVDGVEGSVILQNAETIKLVAPDGKHVSVAELKPGDEILVWLGKKARHFGVEVDEFIVERLEHHHHHH” the value was “soluble”; for “MMKQSFLANERIYLRAVEPEDLDLMYEMENDPSMWDISSFTVPYSRFVLKQYIEGSQSDMFADKQLRLMIMRRKDNCTLGTVDITDFVPLHSRGAVGIAVHSNYRQEGYASDALKLLCEYAFNFLFIKQLYAHIAVDNEPSLRLFNSCGFTQCGVLKEWLLTHEGYKDAVLVQCMNPKR”, “not soluble”.
For “MAHHHHHHMCAWNSAIHAYPTAIAPMLVRRPCHAAMNAYTAVASCATALRLSRSHLHAHMLLLLVLTRQRCNLFTLRSDTFLKAVVQMLFSPALLSTLRSAAGVSARSAPPALRQRVAAIA” the value was “not soluble”; for “MAELLPLSPVPLYTQLKELLRERILDGTYPSHSRMPSESELGKAFDVSRITVRQALGDLQKEGLIFKIHGKGTFVAKPKAFQNVSTLQGLGESMTQMGYEVINRLRSFRHVPANALVAARLQVEEGSLVTEIRRVRLINREPVSLELTWLPKAVGEKLEKADLVTRDIFLLLENDCGIALGHADLAIDAVLADSDLTQALDVEEGSPIMRIERLTHAADGTPLDFEHLYYRGDAFQYRLRIDRQKGGKA”, “not soluble”; for “MSLDGKVAVLTGTKKIEVKKLPVPEINDDEMLVKVEGCGVCGTDVFEYKSDPFNYIPVNLGHEGTGEIVKMGKNVKNDWTGKTLKIGDKIVCGPAANGDIYGLMGGEKHYFNGWLANYMVINPNSVVFNVSDMPLDLRILIEPAAVSCHAVAKSKEIYTFKHSSSVVVQGVGPIGLMVIAQMKTLGVRHIIAVDGNASRLELAKKIGATATVNIDDGDSVAAVKELTDGKGANFVFQCTGSTKGASTAWKFLTDHGGICEVGFFVDNGEATYNPHFDVCMPETKITGSWAYVPEDWVEATEFLRETKDEGLDMTQLITNVYPLDQMNEAMAKNMSGTGVKIVYKNNEGHHHHHH”, “soluble”.
With “MGSDKIHHHHHHMTQRQERLFVLEASSGGRLFSVNPDGSDKKVIVTGCRIPDGVAIDVLAGHVYWTNMGLPPENDGSIERVDLDGGNRTTIVPSGVTHTPKQLYLEAVGRKLYWGDREGMRVMRCDLDGSHVETLVQTGQGEDDRRDETRWCVGVAVDPAGGHLYWTQKGPSDAGLGKILRAGISLPAGESAAERGDIEVLFEGLPEPIDLELDLAERMLYWTDRGDPPRGNSVNRSPMHPPDAQRTPEILLTHLMEAIGIALDPDGGRMYVTDLAGNVYAAGLDGSNRREILVAQGNLTGIAHAVLPTGTSF” the entry was “not soluble”.
Regarding “MANSHVNTLNPGDPFRDWLVEEVVANRIRDKKCCVNVFKYNSSHTVCRYQFKGEHFSVMAKFFAEPTGKLKAYNPYKGMMNEYRNLKKAASIINVAKPLAVRKDFNCVLVTEHIPGKSLGWYLKREEDLYGRLSAVAHMLRNLHDNTKSSYNKENEFRNFHDVLDHLKLDYGTRETFNKLLGEWWYSSLLDRDHGCMVHRDVTPSNYIFCKEKPYAIDFESSWFEAHPIRDLGVLTAELKNEFELHKGGGWKAEPYIGNFLWEYSRGEKDFYSITGILPFFMSIGLLRSARLHQGDYRNYLINEARECLGAIYRGNLEHHHHHH”, the “soluble on expression in E. coli” value is “not soluble”.
